One may read the IC50 as the concentration that inhibits the measured activity by half. Low readings indicate higher potency, high ones lower potency.

For assay [1], the target named is G protein of RSV B/18537 (ATCC Cat. No. VR-1580), on virus (Respiratory syncytial virus B/18537). As to the kind of experiment: cell-based or functional assay.
Assay [2] has as its target T1, Recombinant RSV attachment protein (G protein) corresponding to RSV B/B1 (Respiratory syncytial virus B/B1, UniProt O36633 65-299).
T1 construct: also called RSV Gb; Gb
T1 sequence: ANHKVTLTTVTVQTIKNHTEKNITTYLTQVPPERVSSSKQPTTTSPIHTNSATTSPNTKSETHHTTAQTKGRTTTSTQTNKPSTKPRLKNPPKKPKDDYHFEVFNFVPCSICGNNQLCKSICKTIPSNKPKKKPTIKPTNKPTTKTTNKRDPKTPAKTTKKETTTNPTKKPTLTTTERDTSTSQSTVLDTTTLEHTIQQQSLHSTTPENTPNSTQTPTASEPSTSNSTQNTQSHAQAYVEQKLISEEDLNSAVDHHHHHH
As to the kind of experiment: ELISA, coated recombinant protein. For orientation: In an ELISA, binding on a coated surface is turned into a signal by an enzyme label.

Assay [3] addresses T2, Sym-1705 (RSV-G type A central region peptide 145-201) (Respiratory syncytial virus type A, not fully specified; N-terminal biotin).
T2 construct: Synthetic peptide
T2 peptide: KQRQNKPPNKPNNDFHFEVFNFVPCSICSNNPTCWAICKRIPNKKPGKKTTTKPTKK
As to the kind of experiment: ELISA, biotinylated peptide on avidin plate.

Assay [4] addresses T3, Sym-1706 (RSV G central conserved domain (CCD) peptide, type A 145-184) (Respiratory syncytial virus type A, N-terminal biotin).
T3 construct: Synthetic peptide, C-terminally truncated against Sym-1705
T3 peptide: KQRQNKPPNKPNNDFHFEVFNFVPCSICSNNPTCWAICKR
As to the kind of experiment: ELISA, biotinylated peptide on avidin plate.

For assay [5], the target named is T4, Sym-1788 (RSV-G type B central region peptide 145-201) (Respiratory syncytial virus type B, N-terminal biotin).
T4 construct: Synthetic peptide
T4 peptide: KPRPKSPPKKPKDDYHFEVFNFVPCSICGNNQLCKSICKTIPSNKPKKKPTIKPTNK
As to the kind of experiment: ELISA, biotinylated peptide on avidin plate.

For assay [6], the target named is T5, Sym-1789 (RSV-G type B central region peptide 145-184) (Respiratory syncytial virus type B, N-terminal biotin).
T5 construct: Synthetic peptide, C-terminally truncated against Sym-1788
T5 peptide: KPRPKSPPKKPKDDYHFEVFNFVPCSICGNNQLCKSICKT
As to the kind of experiment: ELISA, biotinylated peptide on avidin plate.

Assay [7] addresses T6, G protein of RSV A/Long (ATCC Cat. No. VR-26), on virus (Respiratory syncytial virus A/Long, UniProt P20895 1-298).
T6 sequence (looked up): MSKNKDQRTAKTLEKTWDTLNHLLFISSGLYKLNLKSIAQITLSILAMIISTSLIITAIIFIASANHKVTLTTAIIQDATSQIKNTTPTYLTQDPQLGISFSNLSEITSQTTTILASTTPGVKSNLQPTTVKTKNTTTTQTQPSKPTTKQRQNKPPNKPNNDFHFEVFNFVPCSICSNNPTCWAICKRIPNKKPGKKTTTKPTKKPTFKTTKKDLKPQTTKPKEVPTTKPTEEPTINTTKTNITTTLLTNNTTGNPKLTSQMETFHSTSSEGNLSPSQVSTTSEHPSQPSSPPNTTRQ
As to the kind of experiment: cell-based or functional assay.

Assay [8] concerns the target T2, Sym-1705 (RSV-G type A central region …). As to the kind of experiment: Octet Red384, streptavidin tips with biotinylated peptide. Background: In BLI a coated tip is dipped into the sample, and binding shifts an interference pattern.
For assay [9], the target named is T3, Sym-1706 (RSV G central conserved …). The assay is described as above.
The target in assay [10] is T2, Sym-1705 (RSV-G type A central region …). As to the kind of experiment: ELISA, antibody titrated on biotinylated peptide on avidin plate.
Assay [11] addresses T3, Sym-1706 (RSV G central conserved …). Described as above.

B1: CB028.1 (antibody, V domains shown)
VH: QVQLVQSGAEVKKPGASVQVSCKTSGYTFSSYGISWVRQAPGQGPEWMGWISTHIGTTNYAQKLQGRVTMTTDTSTTTAYMELRSLRSDDTAVYYCARDLAKWYCSGDTCFCSGGRCYSDHWGQGTLVTVSS
VL: DIQMTQSPSSLSASVGDRVTITCRASQSINDCLNWYQQKPGQAPKLLISAASNLQSGVPSRFSGSGSETDFTLTISSLQPEDFAAYYCQQSFSTPLTFGGGTKVEIK
notes: Tested as human IgG from the pCP9-kappa vector
For B1, the “Neutralization IC50 (ng/mL), plaque reduction assay, RSV B/18537” value in assay [1] was found to be 16.3 ng/mL. Moreover, the binding result in assay [2], in assay [3], in [4], in [5] and in assay [6] was “binds” in each case.

B2: CB076.2L (antibody, V domains shown)
VH: QVQLVQSGAEVKKPGSSVKVSCKTSGDTFSNYVVSWVRQAPGQGLEWMGGIIPMFGTTNYAQRFQGRVTISADESTSTAYMEMSSLKSEDTAVYYCARDRYYEVRAGGKVLNTYYYMDVWGKGTTVTVSS
VL: SSELTQDPAVSVALGHTVRITCQGDSLRSYYTNWYQQKPGQAPVLVIFGEDNRPSGIPDRFSGSSSGDTASLTITGTQAEDEADYYCNSRDSSGNLWVFGGGTKLTVL
notes: Tested as human IgG from the pCP9-lambda vector
For B2, the “Neutralization IC50 (ng/mL), plaque reduction assay, RSV B/18537” value in assay [1] is 5.6 ng/mL. For the same molecule, the binding result in [3], in assay [4] and in [6] was “binds” each time.

B3: CB072.1L (antibody, V domains shown)
VH: QLQLQESGPGLVKPSETLSLTCTVSGGSISSNIHYWAWIRQTPGKGLEWIGYMFYGGVAFYNPSLKSRVAISVDTSKNQFSLRLTSASAADTAVYYCARVLVASTNWFDPWGQGTLVTVSS
VL: SYVLTQPPSVSVAPGGTARITCGGDNIGTKGVHWYQQKPGQAPVLVMYYNSDRPTGVPERFSGSNSGNTATLTISRLEAGDEADYYCHVWDSSGSDHVEVFGGGTKLTVL
notes: Tested as human IgG from the pCP9-lambda vector; also called CB072.IL
Take B3: in [1], the “Neutralization IC50 (ng/mL), plaque reduction assay, RSV B/18537” value came to 2.7 ng/mL. Further, the binding result in assay [3], in assay [4] and in assay [6] was “binds” each time.

B4: CB047.1 (antibody, V domains shown)
VH: EVQLVESGGGLVQPGGSLRLSCAASGFSFSNYAMSWVRQAPGKGLEWVSDISGSGNSTNFADSVKGRFTISRDNSKNTLYLQMSSLRAEDTAVYYCAKFRVPTYCVNGICYQGLPGFDIWGQGTMVTVSS
VL: DIQMTQSPSSLSASVGDRVTITCQASQDISDYLNWYQQKPGKAPKLLIYDASNLETGVPSRFSASGSGTDFTFTISSLQPEDIATYYCQHYHNLPPLFGGGTKVEIK
notes: as for B1
For B4, the “Neutralization IC50 (ng/mL), plaque reduction assay, RSV B/18537” value in assay [1] came out at 4.7 ng/mL. The binding result in assay [3], in [4] and in assay [6] was “binds” each time.

B5: CB047.2 (antibody, V domains shown)
VH: EVQLVESGGGLVQPGGSLRLSCAASGFNFSNYAMSWVRQAPGKGLEWVSDISSSGKTTNSADSVKGRFTISRDNSKNTLFLQMSSLRADDTAVYYCAKFRVPTYCVNGICYQGLPGFDIWGQGTMVTVSS
VL: DIQMTQSPSSLSASVGDRVTITCQASQDISDYLNWYQQKPGKAPKLLIYDASNLETGVPSRFSASGSGTDFTFTISSLQPEDFATYYCQHYHNLPPLFGGGTKVEIK
notes: as for B1
For the molecule B5, in assay [1], the “Neutralization IC50 (ng/mL), plaque reduction assay, RSV B/18537” value amounted to 8.9 ng/mL. The binding result in assay [3], in [4] and in [6] was “binds” throughout.

B6: CB065.1 (antibody, V domains shown)
VH: QVQLVESGGGVVQPGRSLRLSCAASGFTFSNYGMHWVRQAPGKGLEWVTIISYDESTTLYADSVKGRFTISRDNSKNTVYLQMNSLRPEDTAVYYCARDHFDPSGYFWYFDLWGRGTLVTVSS
VL: DIVMTQSPLSLSVTPGQPASISCKSSQSLLQRDGKTYLYWYLQKPGQSPQLLIYEVSSRFSGVPDRFSGSGSGTDFTLKISRVEAEDVGVYYCMQGIRLPRTFGQGTKVEIK
notes: as for B1
For B6, the “Neutralization IC50 (ng/mL), plaque reduction assay, RSV B/18537” value in [1] worked out at 5.1 ng/mL. Also, the binding result in assay [2], in assay [3], in assay [4], in assay [5] and in assay [6] was “binds” each time.

B7: CB017.5L (antibody, V domains shown)
VH: QVQLVESGGGVVQPGRSLRLSCSASGFTFSVYAMHWVRQAPGQGLEWVAIIWYDGSNKYYADSVKGRFTISRDNSKETLYLQMNSLRVEDTAVYYCARDPIVGHTRDGLDVWGQGTTVTVSS
VL: SYELTQPPSVSVSPGQTARVTCSGDAMAEQYTYWYQQKPGQAPVLIIFKDTERPSGIPERFSGSSSGTTVTLTISGVQTEDEADYYCQSTDSSGTSWVFGGGTKLTVL
notes: as for B2
With B7, the “Neutralization IC50, plaque reduction assay, RSV A/Long” value in [7] worked out at 3.5 ng/mL. Further, the “Neutralization IC50 (ng/mL), plaque reduction assay, RSV B/18537” value in assay [1] is 3.8 ng/mL. Besides, the “Binding (Octet) [RU]” value in assay [8] is 3.17 RU; in assay [9], -0.02 RU. For the same molecule, the IC50 in assay [10] and in [11] was about 20 ng/mL each time.

B8: CB071.1L (antibody, V domains shown)
VH: QVQLVQSGAEVKKPGSSVRVSCKASGGTFSRYVITWVRQAPGQGLEWMGGSIPIIDTSTYAQKFQDRVTITADKSTSTVYLELSSLRPEDTAIYYCAKVFFFSNSSGPPTEGPAFDVWGQGTMVTVSS
VL: SYELTQPPSVSVSPGQTASITCSGHELGDKYVSWYQQKPGQSPVLLIYQDTNRPAGIPERFSGSNSGSTAFLTISATQAMDEADYYCQAWDNSHVVFGGGTKLTVL
notes: as for B2
Turning to B8, the “Neutralization IC50 (ng/mL), plaque reduction assay, RSV B/18537” value in assay [1] amounted to 5.4 ng/mL. In addition, the binding result in [3], in [4] and in assay [6] was “binds” in each case.

B9: CB017.3L (antibody, V domains shown)
VH: QVQLVESGGGVVQPGGSLRLSCEASGFMFSVYAIHWVRQAPGKGLEWVAVIWHDGSNKYYADSVKGRFTISRDNSKDTMYLQMKTLRVDDTAVYYCARDPIVGSKTDGMDVWGQGTTVTVSS
VL: SYELTQPPSVSVSPGQTARITCSGDALADQYAYWYQQKPGQAPVMVIFKDNERPSGIPERFSGSSSGTTVTLTVSGVQSEDEADYYCQSVDSSGTYWMFGGGTKLTVL
notes: Tested as human IgG expressed in 293-F cells from the pCP9-lambda vector
As to B9, the “Neutralization IC50 (ng/mL), plaque reduction assay, RSV B/18537” value in [1] was 2 ng/mL. Besides, the binding result in [3] and in assay [4] was “binds” throughout.

B10: CB073.1L (antibody, V domains shown)
VH: QVQLVESGGGVVQPGRSLRLSCAASGFTFYNYAVHWVRQAPGKGLEWVAVISHDGVNKDYADSVKGRITLSRDNSKNTVYLQLNSLRPEDTAVYYCARDRSYYFGGSVFHLYFDYWGQGTLVTVSS
VL: QSVLTQPPSVSGAPGQRVIISCTGSSSNIGAGHDVHWYQQLPGTAPRLLIYANTNRPSGVPDRFSASKSGNSASLVITGLQAEDEADYFCQSHDSSLSGVLFGGGTKLTVL
notes: as for B2
As for B10, in assay [1], the “Neutralization IC50 (ng/mL), plaque reduction assay, RSV B/18537” value was determined as 2.9 ng/mL. The binding result in assay [3], in assay [4] and in assay [6] was “binds” throughout.

B11: CB079.1 (antibody, V domains shown)
VH: EVQLVESGGDLVQPGGSLRLSCSASGFVFTSYSFHWVRQAPGKGLEYVSSVSADGGSTYYADSVRGRFLISRDNSKNTLSLQMSSLRPDDTALYYCVPQPSLLWFGDLRSWGQGTLVTVSS
VL: DIVMTQSPLSLPVTPGEPASISCRSSQSLLHSNGYNYLDWYLQKPGQSPQLLIYLSSNRASGVPDRFSGSGSGTDFTLKISRVEAEDIGIYYCMQSLQTLTFGQGTRLEIK
notes: as for B1
Turning to B11, in [1], the “Neutralization IC50 (ng/mL), plaque reduction assay, RSV B/18537” value is 4.4 ng/mL. Also, the binding result in [2], in assay [3], in [4], in assay [5] and in assay [6] was “binds” in each case.

Source of the values: patent publication US20160145322A1 (CRUCELL HOLLAND B V, published 2016).
